Results reported in article PMC9492545 (Nature, 2022).

Biological target: T1, SARS-CoV-2 nsp12 (RNA-dependent RNA polymerase with N-terminal NiRAN domain) (SARS-CoV-2, UniProt P0DTD1)
T1 construct: also called WT nsp12; RdRp
Test: cryo-EM structure
Conditions: both partners purified

B1: SARS-CoV-2 nsp9 (native N terminus) (natural protein)
chain: NNELSPVALRQMSCAAGTTQTACTDDNALAYYNTTKGGRFVLALLSDLQDLKWARFPKSDGTGTIYTELEPPCRFVTDTPKGPKVKYLYFIKGLNNLNRGMVLGSLAATVRLQ
notes: also called native nsp9
binding result: binds
